Experimental data taken from article PMC4561730 (Molecular and Cellular Biology, 2015).

Target: the molecule itself
Test: negative-staining electron microscopy

B1: recombinant glutathione S-transferase (GST)-SAM protein (GST fusion of the mouse Bicc1 SAM domain) (domain or fragment, UniProt Q99MQ1 875-938, looked up)
chain: FKGSDLPELFSKLGLGKYTDVFQQQEIDLQTFLTLTDQDLKELGITTFGARRKMLLAISELSKN
Question: For B1, which “stoichiometry N” value is on record?
Answer: ~40 units
